T1: ECF02_2817
T1 chain: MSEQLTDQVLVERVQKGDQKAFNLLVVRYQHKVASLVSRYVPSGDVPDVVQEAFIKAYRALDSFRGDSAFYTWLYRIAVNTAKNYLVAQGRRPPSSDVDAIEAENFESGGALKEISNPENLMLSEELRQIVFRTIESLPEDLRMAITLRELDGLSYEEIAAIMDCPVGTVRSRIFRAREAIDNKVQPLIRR

T2: ECF03_1198
T2 chain: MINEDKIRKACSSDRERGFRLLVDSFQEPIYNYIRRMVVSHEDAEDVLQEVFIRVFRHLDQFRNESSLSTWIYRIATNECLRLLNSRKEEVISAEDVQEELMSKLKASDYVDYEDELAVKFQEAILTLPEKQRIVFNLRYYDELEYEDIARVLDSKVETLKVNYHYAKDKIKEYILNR

T3: ECF04_1609
T3 chain: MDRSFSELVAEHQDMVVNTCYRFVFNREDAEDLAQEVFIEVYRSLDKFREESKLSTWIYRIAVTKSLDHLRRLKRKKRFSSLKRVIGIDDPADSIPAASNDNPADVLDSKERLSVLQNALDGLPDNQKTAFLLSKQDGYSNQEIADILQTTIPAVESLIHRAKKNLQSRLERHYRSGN

T4: ECF11_3726
T4 chain: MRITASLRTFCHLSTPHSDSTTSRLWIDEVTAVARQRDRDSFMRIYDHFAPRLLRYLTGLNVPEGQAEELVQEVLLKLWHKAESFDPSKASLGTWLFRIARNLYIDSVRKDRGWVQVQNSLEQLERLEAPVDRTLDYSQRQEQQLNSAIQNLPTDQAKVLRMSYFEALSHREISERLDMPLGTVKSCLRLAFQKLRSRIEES

T5: ECF12_807
T5 chain: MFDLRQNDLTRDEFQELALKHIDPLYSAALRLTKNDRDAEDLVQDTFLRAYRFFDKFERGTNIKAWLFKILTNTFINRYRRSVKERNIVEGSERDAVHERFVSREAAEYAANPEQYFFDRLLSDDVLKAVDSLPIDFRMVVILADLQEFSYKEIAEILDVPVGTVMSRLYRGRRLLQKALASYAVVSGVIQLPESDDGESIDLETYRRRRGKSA

T6: ECF14_1324
T6 chain: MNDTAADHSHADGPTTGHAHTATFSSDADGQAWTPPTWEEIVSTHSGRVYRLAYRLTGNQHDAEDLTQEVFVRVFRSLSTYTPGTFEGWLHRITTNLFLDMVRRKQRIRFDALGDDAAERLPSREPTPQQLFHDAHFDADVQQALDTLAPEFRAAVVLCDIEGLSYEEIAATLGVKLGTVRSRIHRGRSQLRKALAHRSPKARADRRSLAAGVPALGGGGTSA

T7: ECF16_973
T7 chain: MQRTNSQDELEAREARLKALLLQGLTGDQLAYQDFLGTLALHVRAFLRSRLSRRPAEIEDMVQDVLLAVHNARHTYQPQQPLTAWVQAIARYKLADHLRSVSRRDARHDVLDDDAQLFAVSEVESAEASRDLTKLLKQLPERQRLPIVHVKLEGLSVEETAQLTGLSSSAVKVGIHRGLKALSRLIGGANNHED

T8: ECF17_1458
T8 chain: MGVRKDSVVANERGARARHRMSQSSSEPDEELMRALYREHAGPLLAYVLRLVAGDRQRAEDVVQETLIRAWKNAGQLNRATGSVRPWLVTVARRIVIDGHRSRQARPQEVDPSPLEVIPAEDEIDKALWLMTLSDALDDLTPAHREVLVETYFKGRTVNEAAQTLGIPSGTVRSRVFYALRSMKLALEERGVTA

T9: ECF20_992
T9 chain: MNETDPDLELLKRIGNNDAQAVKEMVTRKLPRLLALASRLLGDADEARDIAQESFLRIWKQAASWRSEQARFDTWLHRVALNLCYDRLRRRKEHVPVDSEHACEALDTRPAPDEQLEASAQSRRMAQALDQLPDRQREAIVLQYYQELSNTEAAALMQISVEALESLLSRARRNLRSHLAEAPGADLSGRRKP

T10: ECF22_1147
T10 chain: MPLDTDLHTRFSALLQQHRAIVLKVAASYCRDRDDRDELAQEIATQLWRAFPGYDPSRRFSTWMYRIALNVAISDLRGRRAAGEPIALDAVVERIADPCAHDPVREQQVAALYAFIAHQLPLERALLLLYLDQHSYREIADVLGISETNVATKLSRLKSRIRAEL

T11: ECF27_4265
T11 chain: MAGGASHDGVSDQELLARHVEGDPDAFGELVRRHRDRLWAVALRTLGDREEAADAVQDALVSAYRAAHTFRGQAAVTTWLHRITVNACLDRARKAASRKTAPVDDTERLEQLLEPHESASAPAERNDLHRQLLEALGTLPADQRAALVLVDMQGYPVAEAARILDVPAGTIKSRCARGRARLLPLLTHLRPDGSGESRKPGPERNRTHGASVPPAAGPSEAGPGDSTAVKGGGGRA

T12: ECF28_1088
T12 chain: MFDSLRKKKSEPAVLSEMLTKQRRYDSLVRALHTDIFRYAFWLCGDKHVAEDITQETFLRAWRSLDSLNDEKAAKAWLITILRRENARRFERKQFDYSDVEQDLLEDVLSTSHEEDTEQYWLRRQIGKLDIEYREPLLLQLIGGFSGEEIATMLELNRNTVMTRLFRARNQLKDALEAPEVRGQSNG

T13: ECF31_34
T13 chain: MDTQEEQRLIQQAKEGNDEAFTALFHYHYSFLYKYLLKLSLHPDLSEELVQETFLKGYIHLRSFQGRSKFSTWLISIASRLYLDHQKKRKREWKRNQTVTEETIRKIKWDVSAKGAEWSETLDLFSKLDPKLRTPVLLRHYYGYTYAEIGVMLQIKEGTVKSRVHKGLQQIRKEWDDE

T14: ECF33_423
T14 chain: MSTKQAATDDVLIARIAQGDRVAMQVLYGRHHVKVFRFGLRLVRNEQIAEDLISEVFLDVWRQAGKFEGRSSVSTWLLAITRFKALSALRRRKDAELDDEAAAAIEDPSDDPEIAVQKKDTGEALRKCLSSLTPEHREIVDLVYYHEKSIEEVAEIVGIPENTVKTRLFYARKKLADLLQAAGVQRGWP


Legend:
ECF02_2817 = biological target: T1, ECF02_2817
ECF03_1198 = biological target: T2, ECF03_1198
ECF04_1609 = biological target: T3, ECF04_1609
ECF11_3726 = biological target: T4, ECF11_3726
ECF12_807 = biological target: T5, ECF12_807
ECF14_1324 = biological target: T6, ECF14_1324
ECF16_973 = biological target: T7, ECF16_973
ECF17_1458 = biological target: T8, ECF17_1458
ECF20_992 = biological target: T9, ECF20_992
ECF22_1147 = biological target: T10, ECF22_1147
ECF27_4265 = biological target: T11, ECF27_4265
ECF28_1088 = biological target: T12, ECF28_1088
ECF31_34 = biological target: T13, ECF31_34
ECF33_423 = biological target: T14, ECF33_423

Binder	fold repression (ECF02_2817)	fold repression (ECF03_1198)	fold repression (ECF04_1609)	fold repression (ECF11_3726)	fold repression (ECF12_807)	fold repression (ECF14_1324)	fold repression (ECF16_973)	fold repression (ECF17_1458)	fold repression (ECF20_992)	fold repression (ECF22_1147)	fold repression (ECF26_4464)	fold repression (ECF27_4265)	fold repression (ECF28_1088)	fold repression (ECF31_34)	fold repression (ECF33_423)
AS14_1324 (protein) MSGSRPEPEGHLAEQHLGDRLSALVDGELGHDARERVLAHVATCPKCKAEVDAQRRLKNVFAEAAPPAPSESFLARLQGLPGGGDSDGGGSPFSGLPGGFGASAASGVFGPRRDERFEFDYVPAGSHTPVLPSATSGRGFRIHEVGRHESDRSASRGLRFAFAAAGAVSLAAIALGGVTLGTPDTTTEARGSGSGSNVTPLRTPGSAAATGSESQRRRTAGPLLGQGQRALGDLPVASTTASAPLLPGMPAPAGGDARQQAVRALTTPVTAGAAAMSPLIRPLEAVPPLSLSSWSAAPEVRPPGLLAAPDPAPSPYPAASPAASSSPLR	2.97	3.58	4.65	11	8.92	47.4	4.45	7.16	6.81	8	15.9	2.31	3.46	5.28	4.28
AS15_436 (protein) MAQSTEPKASPQEATAKGGDNTKGKSRKELQQQIDENLRRVYEEALVQEVPDRFAMLLDQLRQKGTGK	1.58	3.84	5.41	7.87	5.3	9	3.01	5.96	1.95	6.02	24.7	2.89	2.98	3.29	3.04
AS15_524 (protein) MNFGVEDMIEHVPMEDKRKGAAALDEARLRQQAIGVKLRQMFDEVVNEPVPDEFLAILRKAERPAGGE	2.65	3.92	6.89	8.06	5.51	10.5	4.98	9.33	5.56	6.96	28.2	4.51	3.64	6.57	6.68
AS16_973 (protein) MKTDDLIALLAAGEGPVPRHAVGRRMAVAALGGLTAALLLTITLYGVRSDITEVAQTPLFWGKVAFPTSLALIGLWLTSRLARPGGKGAAGWKMLGLPLLLVWCGAAVSIAGAPVDARADLLFGRTWRTCALNIALLSVPAFVTVFWALKGLAPTRLRLAGAAGGLLAGSSATVAYCLHCPEMGVPFWGVWYVLGMLVPTVLGAWWGPRMLRW	0.448	0.72	0.632	1.29	0.905	0.887	58.6	1.11	0.636	1.2	1.46	0.412	1.04	0.696	0.683
AS16_3622 (protein) MMKTDELISLLATAEGPVDRHALARRLGLALLAGLLGALLLTVALYGVRSDLAEVARTPLFWAKVALPTSLALLGLWLTQRLARPGVRGGALWGLLGVPLLLVWLGAAISLFGAPPEARADLIFGRTWRTCALNITLLSTPVFIAVFWALRGLAPTRLRQAGAAGGLLAGSTATLVYCLHCPEMGVPFWGLWYLLGMLVPTLLGAVLGPRLLRW	1.37	2.71	1.95	6.84	7.12	8.8	131	4.75	2.48	8.27	8.91	1.45	2.18	2.85	1.87
AS02_915 (protein) MEKTGQEWVSASVDGETDRQTLAELAADTDSHAKWQRYHLMGDAMRDELPQAMPLDLSARIAAALEDEPTILAPKVEREATQAPSRAVVVPFMRQLGQYGIAAAVALMAVVGVQNYQSTQDDAPLPVLNTRPLVGTATPVSLQTGPVANQNQGNANDQLLEQRRRINAYLQDHMLQQRLNTGAVVDDNSEVTPIPVNR	5.22	3.28	3.74	7.44	9.79	4.42	3.34	2.74	4.44	4.49	3.42	2.08	2.38	3.89	2.28
AS20_992 (protein) MTPERFVHLADAYGADLQRWPSAERAAAQALLDCGDAQAVAALRQAHWLDSQLDRYQVPAPSPALAQRIIAAAQQPGAPFWSRYAGWLASLGWVGVGLTGVAAGMLAVALSLPLSTSAEALPSVFDQSDAEFVLSINAEEAEQ	1.74	1.53	1.95	1.91	1.4	1.64	1.7	1.5	169	2.47	2.04	1.1	2.27	1.96	1.32
